Measurements: patent US8669352 (PANGENETICS B V, dated 2014)
Values joined by “and” are separate entries in the source; they are usually repeats but may differ in a detail not shown here. Equal values may be shown once.

What was measured:
[1] = biological target: T1, Recombinant human CD40 extracellular domain fused to human IgG1-Fc domain (huCD40-Fc; R&D Systems 149-CD-50) (human, UniProt P25942 21-193); experiment: SPR (Biacore 3000), immobilised huCD40-Fc, bivalent binding (1:2) model, kd1
T1 construct: extracellular domain; Bought reagent; also called human CD40-Fc; not shown: human IgG1-Fc domain
T1 sequence (P25942 21-193): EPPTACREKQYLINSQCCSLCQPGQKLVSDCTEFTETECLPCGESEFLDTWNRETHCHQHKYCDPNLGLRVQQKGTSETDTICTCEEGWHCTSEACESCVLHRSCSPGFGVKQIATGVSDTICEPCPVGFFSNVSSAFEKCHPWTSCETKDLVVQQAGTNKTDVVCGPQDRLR
Protocol: (§1) The kinetics of ch5D12 (PG100) and PG102 (I29L variant) binding to human CD40 were compared by surface plasmon resonance at a constant temperature of 25.0° C., using a Biacore 3000 instrument. Recombinant human CD40 extracellular domain fused to human IgG1-Fc domain (huCD40-Fc; R&D Systems catalogue number 149-CD-50) was used as the target antigen in these experiments. HuCD40-Fc (1 µg/mL in 10 mM acetate buffer, pH 5.0) was coupled via the amine groups of Lys residues to carbodiimide-activated Biacore CM5 chips, resulting in an antigen immobilization level of 127.4 RU. For kinetic analyses, dilution series of ch5D12 (PG100) and PG102 (range 10.0 µg/mL to 0.313 µg/mL) were prepared in Biacore Running Buffer (HEPES-buffered saline containing EDTA and surfactant; HBS-EP). Kinetic analyses were performed at a flow rate of 30 µL/min. Samples were allowed to bind for 4 min and to dissociate for 5 min, at the same flow rate. The chip surface was then regenerated for 30 seconds using 30 mM NaOH and a baseline re-established in HBS-EP for 2.5 min before injection of the next sample. […]
(§2) BIAcore control software (Version 3.2) was used for data collection and BIAevaluation software (Version 4.1) was used for analysis of kinetic data. Binding parameters were calculated using two different models of molecular interaction: a bivalent analyte model and Langmuir 1:1 binding model.

human CD40 [2] = biological target: T2, human CD40 (human, UniProt P25942 21-277); experiment: cell-based or functional assay
T2 sequence (P25942 21-277): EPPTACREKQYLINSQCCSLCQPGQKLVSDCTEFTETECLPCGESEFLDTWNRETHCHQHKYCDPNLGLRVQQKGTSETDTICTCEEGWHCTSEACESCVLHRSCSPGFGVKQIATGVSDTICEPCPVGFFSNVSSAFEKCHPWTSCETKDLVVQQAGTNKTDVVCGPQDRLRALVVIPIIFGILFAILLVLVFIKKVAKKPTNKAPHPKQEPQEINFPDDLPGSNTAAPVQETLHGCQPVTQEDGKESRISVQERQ

human CD40 [3] = biological target: T2, human CD40; experiment: flow cytometry on JY cells; competitor 1 µg/mL ch5D12 (PG100)-PE; n=4
Protocol: (§3) Competitive Inhibition of ch5D12 (PG100)-PE and PG102-PE Binding to JY Cells Expressing Human CD40 Using Unlabelled Anti-CD40 Antibody Materials and Methods JY cells (Epstein—Barr virus-transformed human B lymphoblastoid cell line) were grown in Iscove's Modified Dulbecco's Medium (IMDM) containing 10% heat-inactivated foetal calf serum (FCS), 2 mM L-glutamine and 50 μg/mL gentamycin in an air-humidified atmosphere containing 5% CO_2, at 37° C. Cells were harvested on the day of flow cytometric measurements.
(§4) Unlabelled ch5D12 (PG100) (Batch 4) and PG102 (Batch 2) antibodies were used in these experiments. Both antibodies were also used in PE-labelled form for direct determination of binding to JY cells by flow cytometry. Antibodies were custom-labelled with PE by AbD Serotec (Oxford, UK). For each FACS analysis the following protocol was used. JY cells were harvested from cell culture and counted. […] Cells were washed followed by flow cytometric analysis in which the MFI at every concentration was determined using a FACScan flow cyometer (Becton & Dickinson). Five thousand events/sample were measured and analyzed using CellQuest® software (Becton & Dickinson).

[4] = biological target: T1, Recombinant human CD40 extracellular …; experiment: SPR (Biacore 3000), immobilised huCD40-Fc, bivalent binding (1:2) model, ka1
Protocol: as §1, §2

human CD40 [5] = biological target: T2, human CD40; experiment: flow cytometry competition on JY cells against 1 µg/mL PE-labelled ch5D12 (PG100) or PG102; range told of both antibodies
Protocol: as §3, §4

human CD40 [6] = biological target: T2, human CD40; experiment: FACS on JY cells expressing CD40; 100 µl PER.C6 transient supernatant harvested after 48 h (antibody concentration not equalised), FITC anti-human IgG 1/100; in the same figure Mock Control Mean 11.25 / Median 8.74, FACS control (secondary only) Mean 10.18 / Median 8.74
Protocol: FIG. 8. FACS analysis using JY cells. PER.C6 cell supernatant of the transient expressed variants (Q5E, K13A, E16Q, T17S, I29L, 37V, P45L, M48L, STS60NSA, T68S, S79F, and T108S) of 5D12 was harvested after 48 h. As control also supernatant was harvested of cells transfected with either ch5D12 or D15D12 together with supernatant from mock (no plasmid) transfected cells. Binding of expressed antibodies was tested by FACS using JY cells together with anti-human FITC labelled secondary antibody (1/100 diluted). As FACS control JY cells were incubated with only the secondary FITC labelled antibody.
By FACS analysis the antigen specificity of the expressed antibodies was analyzed. JY cells are EBV transformed human B-cells, which express CD40. Briefly, 100,000 JY cells were incubated with 100 µl supernatant from the transient expression experiment at 4° C. for 20 minutes. To remove unbound antibody cells were washed with PBS containing 0.05% NaAzide and 1% BSA. As secondary antibody 1/100 diluted FITC labeled anti-human IgG (Jackson 109-095-127) was used. After 20 minutes incubation at 4° C. cells were washed. Finally cell samples were measured on a FACScan (BD).

[7] = biological target: T1, Recombinant human CD40 extracellular …; experiment: SPR (Biacore 3000), immobilised huCD40-Fc, Langmuir (1:1) model
Protocol: as §1, §2

[8] = biological target: T3, huCD40-muIg (Ancell, catalogue number 504-020) (human, UniProt P25942 21-193); experiment: ELISA on coated human CD40-Fc; half-maximal binding concentration
T3 construct: also called CD40-Fc; human CD40-Fc; not shown: murine Ig part
T3 sequence (P25942 21-193): as the sequence (P25942 21-193) above
Protocol: (§5) Plates were washed 3 times with 200 μL/well wash buffer (0.05% Tween-20 in PBS). Subsequently, plates were blocked with 200 μL/well blocking buffer (5% BSA Fraction V [Roche, catalogue number 735094] in wash buffer) and incubated for 1 h at 37° C. (humid environment). Plates were washed 3 times with wash buffer. Test antibodies (ch5D12 (PG100), PG102, and negative control chimaeric anti-huCD86 antibody chFUN-1) were diluted in the range 0-1200 ng/mL in blocking buffer and transferred to assay plates in a final volume of 100 μL/well, followed by incubation for 1 h at 37° C. (humid environment). Plates were washed 3 times with wash buffer followed by addition of 100 μl/well goat anti-human kappa-AP detection antibody (Southern Biotech Associates catalogue number 2060-0) diluted 1:1000 in blocking buffer. Plates were incubated for 1 h at 37° C. in a humid environment before washing 3 times with wash buffer and a further single wash with PBS.

[9] = biological target: T1, Recombinant human CD40 extracellular …; experiment: SPR (Biacore 3000), immobilised huCD40-Fc, Langmuir (1:1) model, ka
Protocol: as §1, §2

[10] = biological target: T1, Recombinant human CD40 extracellular …; experiment: SPR (Biacore 3000), immobilised huCD40-Fc, Langmuir (1:1) model, kd
Protocol: as §1, §2

[11] = biological target: T1, Recombinant human CD40 extracellular …; experiment: SPR (Biacore 3000), immobilised huCD40-Fc, bivalent binding (1:2) model
Protocol: as §1, §2

human CD40 [12] = biological target: T2, human CD40; experiment: flow cytometry on JY cells; competitor 1 µg/mL PG102-PE; n=4
Protocol: as §3, §4

[13] = biological target: T1, Recombinant human CD40 extracellular …; experiment: SPR (Biacore 3000), immobilised huCD40-Fc, bivalent analyte model; the text value differs from the table's 5.29 × 10^-9 M; bivalent analyte model, not Langmuir
Protocol: as §1, §2

[14] = biological target: T3, huCD40-muIg (Ancell, catalogue number …); experiment: ELISA on coated human CD40-Fc (huCD40-muIg per methods); n=4
Protocol: as §5, with “Plates were incubated for 1 h at 37° C. in a humid environment before washing 3 times with wash buffer and a further single wash with PBS.” left out
PNP substrate was prepared by adding 1 tablet p-Nitrophenyl Phosphate tablets (Sigma, catalogue number N-2765) in 15 mL PNP substrate buffer (12.1 g Tris, 5.84 g NaCl, 1.02 g MgCl_2.6H_2O in 1 L H_2O (adjusted to pH 9.6 with HCl). PNP substrate was added to assay plates at 100 μL/well. Plates were incubated for several minutes (max 30 min) at 37° C. to allow colour development before the reaction was stopped by addition of 3M NaOH. Colour intensity was determined at 405 nm using a micro plate reader (Biorad, model 550).

koff [1] [s⁻¹]	-log IC50 for inhibition of IL-8 release by IFN-gamma-pulsed THP-1 cells co-cultured with Jurkat 39.8/50 cells (human CD40 [2])	-log IC50 (human CD40 [3])	kon [4] [M⁻¹ s⁻¹]	Mean (FL1-H) (human CD40 [6])	Median (FL1-H) (human CD40 [6])	Kd [7] [nM]	EC50 [8] [µg/mL]	kon [9] [M⁻¹ s⁻¹]	koff [10] [s⁻¹]	Kd [11] [nM]	-log IC50 (human CD40 [12])	Kd [13] [nM]	-log half-maximal binding concentration [14]	Binder	IC50 (human CD40 [5])
0.00247	8.42 -log10 (unit not printed)	7.63 -log10 of g/mL (per p-0205: ~20-30 ng/mL)	782000	108	91.8	0.237	~0.03	2.51e+06	0.000596	5.41	7.65 -log10 of g/mL (per p-0205: ~20-30 ng/mL)	–	–	PG102 (I29L variant) (antibody, human IgG4, kappa, V domains shown, Human IgG4/kappa; also called 29L-37I) VH: QVKLQESGPGLVKPSETLSITCTVSGFSLSRYSVYWIRQPPGKGPEWMGMMWGGGSTDYSTSLKSRLTISKDTSKSQVSLKMNSLRTDDTAMYYCVRTDGDYWGQGTTVTVSS VL: ELQLTQSPLSLPVTLGQPASISCRSSQSLANSNGNTYLHWYLQRPGQSPRLLIYKVSNRFSGVPDRFSGSGSGTDFTLKISRVEAEDVGVYYCSQSTHVPWTFGGGTKLEIKR	0.02 µg/mL to 0.03 µg/mL (2×) and 0.13 nM to 0.2 nM (2×)
0.0016	8.28 -log10 (unit not printed)	7.5 -log10 of g/mL (per p-0205: ~20-30 ng/mL)	641000	–	–	0.271	~0.03	1.88e+06	0.000507	5.29	7.54 -log10 of g/mL (per p-0205: ~20-30 ng/mL)	5.25	7.54 -log10 of g/ml (per caption: 7.45 ~ 35 ng/ml)	ch5D12 (PG100) (antibody, V domains shown, also called chimeric 5D12) VH: QVKLEESGPGLVAPSQSLSITCTVSGFSLSRYSVYWVRQPPGKGLEWLGMMWGGGSTDYNSALKSRLSISKDTSKSQVFLKMNSLRTDDTAMYYCVRTDGDYWGQGTSVTVSS VL: ELQLTQSPLSLPVSLGDQASISCRSSQSLVNSNGNTYLHWYLQKPGQSPKLLIYKVSNRFSGVPDRFSGSGSGTDFTLKISRVEAEDLGVYFCSQSTHVPWTFGGGTKLEIKR	0.02 µg/mL to 0.03 µg/mL (2×) and 0.13 nM to 0.2 nM (2×)
